In the assay the target is Hepatitis B e antigen (HBeAg), purified (hepatitis B virus). Kind of assay: SEC-MALS. A general note: SEC sorts molecules by how far they enter the pores of the column.

Drawing on paper PMC6618080, this text covers stoichiometry N for 1 substance.

What is called stoichiometry N is a count of units in the complex or per binding partner. As for “Hepatitis B e antigen (HBeAg), purified (natural protein)”, the stoichiometry N came out at 2.
